Data as given in patent US10888547B2, “Amorphous and a crystalline form of genz 112638 hemitartrate as inhibitor of glucosylceramide synthase” (Genzyme Corporation, priority 2009, dated 2021).

How the values were obtained:
[1] = Hygroscopicity of salts and free base; assay type: physicochemical
Aqueous solubility = assay type: physicochemical; conditions: in water
cytochrome P450 enzymes = experiment: Hepatic metabolism by cytochrome P450 enzymes; assay type: in vitro ADME, human; conditions: liver
From the text: Cytochrome P450s (“CYPs”) are the principal hepatic xenobiotic metabolizing enzymes. There are eleven xenobiotic-metabolizing cytochrome P450s expressed in a typical human liver (i.e., CYP1A2, CYP2A6, CYP2B6, CYP2C8/9/18/19, CYP2D6, CYP2E1 and CYP3A4/5). […] The level of activity of P450 enzymes differs according to the individual. For example, individuals can be classified as poor, intermediate and extensive/ultra rapid P450 metabolizers. Because lower levels of P450 activity in an individual can give rise to drug/drug interactions (“DDI”), another embodiment of the invention is to determine whether the subject is a poor, intermediate and extensive/ultra rapid P450 metabolizer. […] The dose can raised incrementally and the subject retested once, twice, three, four or as many times as necessary to achieve an adjusted effective dose.

[2] = system: Gaucher mice (D409V/null); experiment: Separate and sequential enzyme and substrate reduction therapy in Gaucher mice; assay type: in vivo, mouse
From the text: Procedures involving animals were reviewed and approved by the Institutional Animal Care and Use Committee (IACUC) at Genzyme Corporation following the guidelines issued by the Association for Assessment and Accreditation of Laboratory Animal Care (AAALAC). […] The study had 6 groups of mice with group A being sacrificed after 2 weeks to provide baseline levels of tissue glucosylceramide. Groups B, C, and D all received recombinant human glucocerebrosidase (Genzyme Corp., Cambridge, Mass.) (10 mg/kg) intravenously via a tail-vein (100 μL) every 2 days for a total of 8 injections. Group B was sacrificed at the end of this regimen (at the same time as group A) to provide enzyme-reduced levels of tissue glucosylceramide. Groups D and E were both fed Formula (I) Hemitartrate (Genzyme Corp., Cambridge, Mass.) as a component of the pellet food diet. The drug was formulated at 0.075% (w/w) in standard 5053 mouse chow (TestDiet, Richmond, Ind.) and provided ad libitum. […] Group F received no treatment and was sacrificed along with groups C, D and E 12 weeks after the start of the study. Food consumption and mouse weights were monitored three times per week to determine drug intake and the potential impact of the drug on overall health. Animals were killed by carbon dioxide inhalation and their tissues harvested immediately. Half of each tissue was snap frozen on dry ice and stored at −80° C. until ready for further processing. The other half was processed for histological analysis.
Glucosylceramide levels were quantified by mass spectrometry as described previously (see K. McEachern, et al., J. Gene. Med. 8 (2006) 719-729; T. Doering, J. Biol. Chem. 274 (1999) 11038-11045, the entire teachings of both are incorporated herein by reference). A known mass of tissue was homogenized in 2:1 (v/v) chloroform:methanol and incubated at 37° C. for 15 min. Samples were centrifuged and the supernatants were extracted with 0.2 volumes of water overnight at 4° C. The samples were centrifuged, the aqueous phase was discarded, and the organic phase was dried down to a film under nitrogen. For electrospray ionization mass spectrometry (ESI/MS) analysis, tissue samples were reconstituted to the equivalent of […] original tissue weight in 1 ml chloroform:methanol (2:1, v/v) and vortexed for 5 min. Aliquots (40 μL) of each sample were delivered to Waters total recovery vials and 50 μL of a 10 μg/mL d3-C16-GL-1 internal standard (Matreya, Inc., Pleasant Gap, Pa.) was added. Samples were dried under nitrogen and reconstituted with 200 μL of 1:4 (v/v) DMSO:methanol. ESI/MS analysis of glucosylceramides of different carbon chain lengths was performed on a Waters alliance HPLC (Separation Module 2695) coupled to a Micromass Quattro Micro system equipped with an electrospray ion source. Lipid extract samples (20 μL) were injected onto a C8 column ([…] i.d; Phenomenex, Torrance, Calif.) at 45° C. and eluted with a gradient of 50 to 100% acetonitrile (2 mM ammonium acetate, 0.1% formic acid) at 0.5 mL/min. The first 0.5 min. was held at 50% organic and then quickly switched to 100% for the final 3.5 min. The source temperature was held constant at 150° C. and nitrogen was used as the desolvation gas at a flow rate of 670 L/h. The capillary voltage was maintained at 3.80 KV with a cone voltage of 23 V, while the dwell time for each ion species was 100 ms. Spectra were acquired by the MRM mode to monitor eight dominant isoforms (C16:0, C18:0, C20:0, C22:1, C22:0, C22:1-OH, C24:1, and C24:0). Quantitation of glucosylceramide was based on the sum of these eight isoforms relative to the internal standard, with a calibration curve ranging from 0.1 to 10 μg/mL.
For histological analysis, tissues were fixed in zinc formalin (Electron Microscopy Sciences, Hatfield, Pa.) at room temperature for 24 h, then stored in PBS at 4° C. until ready for further processing. […]

[3] = system: Gaucher mice (D409V/null); experiment: Glucocerebrosidase dosing regimen for debulking GL1 in Gaucher mice; assay type: in vivo, mouse; conditions: for reduction of GL1 levels in the liver: 7 days after last infusion
Procedure: To investigate the relative merits of combination and monotherapy with either enzyme or substrate reduction therapy, the enzyme regimen that maximally depleted GL1 levels in the visceral organs of Gaucher mice was first determined. Three month-old Gaucher mice (D409V/null) were intravenously administered 2, 4 or 8 doses of 10 mg/kg recombinant human glucocerebrosidase. The mice that were treated with 2 or 4 doses of the enzyme received drug infusions every 3 days while those that were treated with 8 doses received the enzyme every 2 days. The use of a shorter time interval between infusions in animals that received 8 treatments was designed to minimize the potential impact of any immune response to the administered human enzyme. The animals were killed 7 days following the last enzyme infusion and the amount of GL1 remaining in their livers, spleens, and lungs were measured.

Fabry-Rag mice = experiment: Combination ERT/SRT therapy of Fabry-Rag mice; assay type: in vivo, mouse; conditions: ERT 1 mg/kg α-galactosidase A i.v., SRT 300 mg/kg daily in diet
Procedure: For the combination therapy studies, Fabry-Rag mice were put on study at 3 months old (treatment model). Mice in group A received intravenous injections of recombinant human alpha-galactosidase A (Genzyme Corp.) at a dose of 1 mg/kg every 2 months (i.e. 3, 5, 7 and 9 months old). Group B received the same intravenous enzyme doses plus it received Formula (I) Hemitartrate (Genzyme Corp., Cambridge, Mass.) as a component of the pellet food diet. The drug was formulated at 0.15% (w/w) in standard 5053 mouse chow (TestDiet, Richmond, Ind.) and provided ad libitum. […] Group C received enzyme injections every 4 months (i.e. 3 and 7 months old) and was on the same drug-in-food diet as group B. Group D received only the drug-in-food diet (same as groups B and C). Group E was untreated Fabry-Rag mice and group F were wild-type controls.
Quantitation of GL-3 was by Tandem Mass Spectrometry essentially as for GL-1.
Hot plate Assay was performed as described previously (Ziegler, R J et al. Molec. Ther. 15(3), 492-500 (2007).
Beginning at three-months of age, the mice were subjected to a schedule of behavioral tests (i.e. hot-plate assay) and biochemical tests (i.e., GL-3 level analysis in tissues/blood/urine), as shown in FIG. 10.

Molecule: CCCCCCCC(=O)N[C@H](CN1CCCC1)[C@H](O)c1ccc2c(c1)OCCO2 [hydrochloric acid (1:1)]
- hygroscopicity of the solid salt ([1]; salt screen, Example 1): hygroscopic

Molecule: CCCCCCCC(=O)N[C@H](CN1CCCC1)[C@H](O)c1ccc2c(c1)OCCO2 [Formula (I) Free Base]
- Aqueous solubility (Aqueous solubility): 40 µg/mL
- Hygroscopicity (40° C./75% RH) ([1]; 40° C./75% RH): None
- primary cytochrome P450 isoforms responsible for de-toxifying the compound (cytochrome P450 enzymes): CYP2D6 and CYP3A4

B1: recombinant glucocerebrosidase: recombinant human glucocerebrosidase (Genzyme Corp.), enzyme therapy given to Gaucher mice (protein, UniProt P04062 40-536, looked up)
Lysosomal acid …: ARPCIPKSFGYSSVVCVCNATYCDSFDPPTFPALGTFSRYESTRSGRRMELSMGPIQANHTGTGLLLTLQPEQKFQKVKGFGGAMTDAAALNILALSPPAQNLLLKSYFSEEGIGYNIIRVPMASCDFSIRTYTYADTPDDFQLHNFSLPEEDTKLKIPLIHRALQLAQRPVSLLASPWTSPTWLKTNGAVNGKGSLKGQPGDIYHQTWARYFVKFLDAYAEHKLQFWAVTAENEPSAGLLSGYPFQCLGFTPEHQRDFIARDLGPTLANSTHHNVRLLMLDDQRLLLPHWAKVVLTDPEAAKYVHGIAVHWYLDFLAPAKATLGETHRLFPNTMLFASEACVGSKFWEQSVRLGSWDRGMQYSHSIITNLLYHVVGWTDWNLALNPEGGPNWVRNFVDSPIIVDITKDTFYKQPMFYHLGHFSKFIPEGSQRVGLVASQKNDLDAVALMHPDGSAVVVVLNRSSKDVPLTIKDPAVGFLETISPGYSIHTYLWRRQ
- liver histopathology, CD68-positive Gaucher cells ([2]; 2 weeks enzyme, then 10 weeks without further treatment): re-emergence of Gaucher cells
- liver histopathology, CD68-positive Gaucher cells ([2]; enzyme over a period of 2 weeks): substantial clearance of the lipid
- stored GL1 levels cleared from the liver ([2]; group B: 8 doses of 10 mg/kg enzyme over 2 weeks): Approximately 80%
- reduction of splenic GL1 levels ([2]; group B: enzyme alone for 2 weeks): approximately 60%
- reduction in substrate (GL1) levels in the lung ([2]; group B: enzyme for 2 weeks): 30%
- splenic GL1 levels versus untreated control (F) ([2]; group C: 2 weeks enzyme, then 10 weeks without further intervention): not significantly different
- liver GL1 levels versus untreated controls (F) ([2]; group C: 2 weeks enzyme, then 10 weeks without further treatment): not significantly different
- lung GL1 levels versus untreated levels (F) ([2]; group C: 2 weeks enzyme, then normal chow for 10 weeks): not significantly different
- splenic GL1 levels versus untreated controls ([3]; 2 doses of 10 mg/kg i.v.): did not significantly alter
- reduction of GL1 levels in the liver ([3]; 2 doses of 10 mg/kg i.v. every 3 days): 50%
- reduction of splenic GL1 levels ([3]; 4 or 8 doses of 10 mg/kg i.v.): about 50%
- reduction of GL1 levels in the liver ([3]; 4 or 8 doses of 10 mg/kg i.v.): approximately 75%
- lung GL1, reduction to % of untreated control ([3]; 8 doses of 10 mg/kg i.v. every 2 days): approximately 60%

B2: ERT: enzyme replacement therapy in Fabry-Rag mice: recombinant human alpha-galactosidase A (Genzyme Corp.), 1 mg/kg intravenous (protein, UniProt P06280 32-429, looked up)
Alpha-galactosidase A: LDNGLARTPTMGWLHWERFMCNLDCQEEPDSCISEKLFMEMAELMVSEGWKDAGYEYLCIDDCWMAPQRDSEGRLQADPQRFPHGIRQLANYVHSKGLKLGIYADVGNKTCAGFPGSFGYYDIDAQTFADWGVDLLKFDGCYCDSLENLADGYKHMSLALNRTGRSIVYSCEWPLYMWPFQKPNYTEIRQYCNHWRNFADIDDSWKSIKSILDWTSFNQERIVDVAGPGGWNDPDMLVIGNFGLSWNQQVTQMALWAIMAAPLFMSNDLRHISPQAKALLQDKDVIAINQDPLGKQGYQLRQGDNFEVWERPLSGLAWAVAMINRQEIGGPRSYTIAVASLGKGVACNPACFITQLLPVKRKLGFYEWTSRLRSHINPTGTVLLQLENTMQMSLKDLL
- onset of heat-insensitivity (Fabry-Rag mice): not
- urine GL-3 levels (Fabry-Rag mice): does not
- blood GL-3 levels (Fabry-Rag mice; from 3 months of age): reduces
